Experiment: soluble on expression in E. coli; label from the status in PepcDB or PDB records

Sequence	soluble on expression in E. coli
MAASLRSFLEQLKRQNSLYLVKKPVNPRFELGALLKKTKGTVPMFFQNIEGYDVPAVGGIVGTRENFAQALRINKSELLAKITEAITNPGETRLLPSGPVQENVLTKGFDIGKMFPIPTFHEKDSGAFITAGIVVAKDPIYGRRFTSIRRMQLNGPNNLSILIESPGLIEQYYEFERRGQAMEVAIVLGVHPAITLSSQLPTQTFGLDKYNVASRLIGEPLPVVKCKTIDLEVPADAEIVLEGRMLPYVRHPEGPFGELMGYYGPQTMQPVVEVTAVTFRNNPIFQVIFPSSYEHKLPNALMREVVLFNHVRHVVPTVQDVHLTMAGGGRCHAIISIKKTAEGQGKQAIFAALASNKDVKHVVVVNDDVDIFDPEDVEWAIATRVQADQDIIIIPGAQGTPLEPSHNLRGVSAKMGIDATYPLAEEERFARTQIPGYDQIRLEDYLTLDW	soluble
MTEQTILMGNLNEVAKKAAQWLINRKPIKSIIDWGISFSLWPPHFTTSCCGTEFGAFAAARFDAERYGMLPFSSARQSNILILEGTLSRKMGRAARIVYDQMPEPKYVIALGACILEGGIFWNSYNTVLPSDIGIPVDLYVPGCPIRPEAVARAVLMLQKKIRTQGALKT	not soluble
MSLDIVLVGCKGFGKEHLRIYSKLGYDVSIVERDSNEAKRCSELFRVYKVYDNYEDALRSGSNIVDLVVPDGLHYEMGSLALKSKKHLLVEKPITPDIDSGISLIQQAEESKLKLMVAEQFYFDPSVNEAIRRINNGEIGKPHTVIVRHQSFRELKGWRNEKSMMGRGILIDEGTHYIDTLLNFGGRYRSLRSFVHRTWDFLGEDTAEAVFNFENGMHGLFFYSWNYPEYPLLPEFEIIGDAGSIYEDIGTKPTEPWDQRKRKTAYGDIIVNGKHIPVEPYDVIEREISGFLNAVEKDEPVPMPPDLALRDIITIDRIYKASSDEGHHHHHH	soluble
AHHHHHHASAKWVCKICGYIYDEDAGDPDNGISPGTKFEELPDDWVCPICGAPKSEFEKLEDGSNPMPRKISFDPPSFIQLTRKQNKELLEFVLAEFEIYLPITTVHAYLLAKAFKGKNPKEEVQKLRDIVKIVDLTDELLGEIAEIDASLIKDGYFFTLEDLITAVSAITSKSLLVVNGNAEKYSPLRKYGLDCVNYEKFLEEVEVLAREEAKREKII	soluble
MSAFQAFVVNKTETEFTAGVQTISMDDLPEGDVLVRVHYSSVNYKDGLASIPDGKIVKTYPFVPGIDLAGVVVSSQHPRFREGDEVIATGYEIGVTHFGGYSEYARLHGEWLVPLPKGLTLKEAMAIGTAGFTAALSIHRLEEHGLTPERGPVLVTGATGGVGSLAVSMLAKRGYTVEASTGKAAEHDYLRVLGAKEVLAREDVMAERIRPLDKQRWAAAVDPVGGRTLATVLSRMRYGGAVAVSGLTGGAEVPTTVHPFILRGVSLLGIDSVYCPMDLRLRIWERLAGDLKPDLERIAQEISLAELPQALKRILRGELRGRTVVRLA	soluble
MGSDKIHHHHHHMKKVNYAAIDIGSNAVRLLIKCVNEENAPELMSKVQLIRIPLRLGEDAFTMGVISAEKEKKLIRLMKAYKQLMKIYDVVDYRACATSAMRDARNGKDIARQIARKTGIRVDIIDGQEEAHIVYDNHIEQLFASGQNYLYVDVGGGSTEINLISNGELKNSRSYNIGTVRMLSGMVKEEEKEALRTDLIGLAAEYAPTSIIGSGGNINKLFRLADKKDKKASLLPVESLREIYEALQALPAEQRIKQYKLKPDRADVIVPAAEIFLEVAMNVKATGIIVPTIGLSDGIIDSLYTQKMNTPVAPKVQ	not soluble
MRLSFLTLQRRHALRDALRHKPAPRCRTQERTQSVQNGMPTRSVARLEHHHHHH	not soluble
CSLIPDYQRPEAPVAAAYPQGQAYGQNTGAAAVPAADIGWREFFRDPQLQQLIGVALENNRDLRVAALNVEAFRAQYRIQRADLFPRIGVDGSGTRQRLPGDLSTTGSPAISSQYGVTLGTTAWELDLFGRLRSLRDQALEQYLATEQAQRSAQTTLVASVATAYLTLKADQAQLQLTKDTLGTYQKSFDLTQRSYDVGVASALDLRQAQTAVEGARATLAQYTRLVAQDQNALVLLLGSGIPANLPQGLGLDQTLLTEVPAGLPSDLLQRRPDILEAEHQLMAANASIGAARAAFFPSISLTANAGTMSRQLSGLFDAGSGSWLFQPSINLPIFTAGSLRASLDYAKIQKDINVAQYEKAIQTAFQEVADGLAARGTFTEQLQAQRDLVKASDEYYQLADKRYRTGVDNYLTLLDAQRSLFTAQQQLITDRLNQLTSEVNLYKALGGGWNQQTVTQQQTAKKEDPQAHHHHHH	soluble
MGSDKIHHHHHHMGNTQWQRLLQIEIHDKNGKNRVLLRADSGRLDRLEIHFTAPFSDSPNPSEVSVTIYNLNKKSIDFIKKGNPVYIHAGYAGTSNGVITSGTIAEVKPSVLNGVDRATTFTFLEGKDYSEQKEVNITFNNGTDAHTIINRVAREANIPLSEIKLKNNKIYGSGYTADGQAMMVLEEISKACDTSLYFKRGQLVIKNFRDGNKERYRLSPETGLINQPTKVESHDYTGWSVECLLQHKITTGTAVYIDSKNVKGNFYVKNGQHSYDGSRFVTTCEVVT	not soluble
MFELVDNIAQTAVIKVIGVGGGGGNAVNHMAKNNVEGVEFICANTDAQALKNIAARTVLQLGPGVTKGLGAGANPEVGRQAALEDRERISEVLEGADMVFITTGMGGGTGTGAAPIIAEVAKEMGILTVAVVTRPFPFEGRKRMQIADEGIRALAESVDSLITIPNEKLLTILGKDASLLAAFAKADDVLAGAVRGISDIIKRPGMINVDFADVKTVMSEMGMAMMGTGCASGPNRAREATEAAIRNPLLEDVNLQGARGILVNITAGPDLSLGEYSDVGNIIEQFASEHATVKVGTVIDADMRDELHVTVVATGLGARLEKPVKVVDNTVQGSAAQAAAPAQREQQSVNYRDLDRPTVMRNQSHGSAATAAKLNPQDDLDYLDIPAFLRRQAD	soluble
MTGVGTPSPSLEWRRRVMSWTDERVSTLKKLWLDGLSASQIAKQLGGVTRNAVIGKVHRLGLSGRAAPSQPARPAFKAPRPARPAAQAMPSAPRRVTPVEAPTSVPVAAAPAPLPAFRHEEPGSATVLTLGAHMCKWPIGDPSSEGFTFCGRRSSEGPYCVEHARVAYQPQQTKKKSGGAELARSLRRYILEHHHHHH	not soluble
MFKRLMMVALLVIAPLSAATAADQSNPYKLMNEAAQKTFDRLKNEQPKIRANPDYLRDVVDQELLPYVQVKYAGALVLGRYYKEATPAQREAYFAAFREYLKQAYGQALAMYHGQTYQIAPEQPLGDATIVPIRVTIIDPNGRPPVRLDFQWRKNTQTGNWQAYDMIAEGVSMITTKQNEWSDLLRTKGIDGLTAQLKSISQQKITLDEKQLEHHHHHH	soluble
MGSDKIHHHHHHMSFLIGPFLKSFIDNVIKDTVIPVKGSVVYCGLFGYAEHSGIYIGDNKIVHLDGSGIIEVVSPQQFIERLSGLNPAMSIYVSCNGSSATGTNTIAKRAKKMVGKSRKYHVILDNCHQFTSGCITGNFDNADNFLWMLKSTAGNKLSTNKWRVWERKYSS	not soluble
GPGSMGYRLLRDNVFKASCAKDSDELRARREPTMLYKEDQLVAPASGTERRYTLVLDLDETVIYAREGPLYARAYLKELLSFIRKNFEVIVWTAGEREYAECILEEINIRNTVRHLIHRHKTWFSFDDYTKDLTKLGRNLDYVIIIENSPDCVRTNPQNGIIVDDFRVSQTPPMEEAEAAWEGDGNNRERKAGSRSDSKTRRQVTDRTLLLLREVLKAMVESGETVPDFLAKCPLLTQRRVIGSDGSQIQTYHLGTRRKRGIPQLCASSPKRRRVTKESAPGATCTS	soluble
GAMGDIDERNIFFELFDRYKLDKFSTWSLQSKKIENDPDFYKIRDDTVRESLFEEWCGE	soluble
MIIKPRIRGFICTTTHPVGCEANVKEQIAYTKAQGPIKNAPKRVLVVGASSGYGLSSRIAAAFGGGASTIGVFFEKEGTEKKPGTAGFYNAAAFEKLAREEGLYAKSLNGDAFSNEAKQKTIDLIKEDLGQVDMVVYSLASPVRKMPETGELIRSALKPIGETYTSTAVDTNKDVIIEASVEPATEEEIKDTVTVMGGEDWELWINALSDAGVLAEGCKTVAYSYIGTELTWPIYWDGALGKAKMDLDRAAKALNEKLGATGGSANVAVLKSVVTQASSAIPVMPLYIAMVFKKMREEGVHEGCMEQIYRMFSQRLYKEDGSAAEVDDMNRLRLDDWELREDIQQHCRELWPQITTENLKELTDYVEYKEEFLKLFGFGVEGVDYEADV	not soluble
VIGADVPRDSQRARVYAAEAFVRTLFDRVTAHGSPTVEFFGTQLTLPPEGRFGSVASVQRYVDDVLALPAVGQNWPTVSPVRVRARRAATAAHYENHGGTGTIAVPDRHTAGWAMRELVVLHEVAHHLCQVPPPHGPEFVATVCTLTELVMGPEVGHVFRVVYAQEGVR	soluble
MGSDKIHHHHHHMSRRTQIADMRLSSGVPGFDELIEGGLLPNRLYVVSGPPGSGKTTFCSQFITQGVKEGETCLYVTMHETKTELMQDMAGYDFGFDRAMQSDAIQFLNLVTESGKRTITQFGNEGGLTNRLVAYIRQNDIQRVVIDSTMLLQHFMADVEDEITGFLSALKQTDATTLLISEMTDPSSYSDEHYLAHGVVFFHNFLENGSMTRGVQVIKMRGTAIDCDIREISFSDAGLQVHTDRKVET	not soluble
MGSDKIHHHHHHMVEHRGFDVLSLPWLDVPRQAFLTQLQTQKVPHAQLVGIDSAYGGELLSVFMARAAMCSQPTHTGGCGFCKSCQLFDAGNHPDFYQIEADGHQIKVDQIRELCSRLSATAQQSGRRVAIIHHSERLNSASANALLKTLEEPGKDTLLLLHSDTPARLMATISSRCQRLPFVAPSKTLIKNWLIQQCQIQEDVTWCLSVVGGPLKLAESLQSNSTQPSRYQTLLGFRKDWAQSLSSGHLCASLLIISEQQIIDALKVLYLLLRQILLKNGNQDAYVQAQIGNLAAKVMGMCHSLSAMPSVNYLGLCQSYVLEYRDITNK	not soluble
MRGSHHHHHHGMASMTGGQQMGRDLYDDDDKDHPFTEGRSWPSAPDDSKAQAHRIHIDPEIQDGSPTTSRRPSGTGTGPEDGRPSLGSPYGKPPCFPVPHNGSSEATLPAQMSTLHVSPPPSADPAEASRGAGSRVDLGSEVYRMLREPAEPVAAEPKQSGSFRYLQGMLEAGEGGD	soluble
MPHKNTKSNVQKITASVASVIVSTGIVMNSSNRRVKATGKREDEIVEVESLKRADTETTKAAAVQTPKINQTKKMSHRTQKVTQMIHYVDEDERPVYDDYTASLIFEQTGILDNVTGKQTWNSNWLPKTTATFSAVEHPVVRNHHLVNPEINEVSAYDVEVTDDTFKNPLLKVHKVVYAHDIEPIKRTQVVTQTIHYRYEDGAVAHDDHVVSLIFTQSGKRDLTNGKEIWDSKWSLTQTFEALPSPVIIGYTADKPMVGPDEVTVDSKNFLDKQNREETVIYSANTITQNKKDGISEEKNVNNSVAVAPLKSAVMIGGVISILKFKRLMVIIKNKKDHKLEHHHHHH	soluble
MSLADLTFPSLSYRTGPYAAGGIPFADGYADYFTLLNERDGGIGGVKANVLECETGYNTEKGVECYESTKGQGALVYQPLSTGITYQLIPKATADGIAIHSMGYGRTSAKNGNVFSHVFNYPANYWDGASGAVNYLLEINGGDIKGKKIALVYHNSAYGKEPIRTLEELSKKHGFDLSTLPVDHPGQEQKSQWLQIRRDKPDYVLMWGWGVMNQVAVQEAANIRFPMENFIGIWWSGSENDVLPAGDAANGYKALTFHNVGTAFPLFDDLQKYVIDAGKAAGAGDQVGTVLYNRGLYAAMLAAEAAKKAQEISGKADITAADMRDGMEALEMTEAKMAELGLPNFGPTFSVSCGNHGGDALVGVTQWDATSKTWSLISDFKPTDGDVIGALIEEDSSAYASENNISPRCNEGHHHHHH	soluble
